Assay results as given in patent US10766960 (dated 2020).
Numbering of substitutions follows the chain as printed. Read-outs that look alike come from different tables or passages of the source. One block for each binder: values may come before it.

Experiments:
Assay in all cases: SPR
FcgRIa [1] = target: T1, FcgRIa (human, UniProt P12314)
T1 chain: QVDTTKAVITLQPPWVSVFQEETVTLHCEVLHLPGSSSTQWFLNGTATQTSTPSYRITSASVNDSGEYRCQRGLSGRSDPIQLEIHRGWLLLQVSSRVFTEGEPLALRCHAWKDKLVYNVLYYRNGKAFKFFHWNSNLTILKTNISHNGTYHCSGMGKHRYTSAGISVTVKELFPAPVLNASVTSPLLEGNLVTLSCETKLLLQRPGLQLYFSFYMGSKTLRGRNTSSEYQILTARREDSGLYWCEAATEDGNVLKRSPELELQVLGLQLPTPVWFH

FcgRIIIa F [2] = target: T2, FcgRIIIa F (human, UniProt P08637)
T2 sequence (P08637 17-208): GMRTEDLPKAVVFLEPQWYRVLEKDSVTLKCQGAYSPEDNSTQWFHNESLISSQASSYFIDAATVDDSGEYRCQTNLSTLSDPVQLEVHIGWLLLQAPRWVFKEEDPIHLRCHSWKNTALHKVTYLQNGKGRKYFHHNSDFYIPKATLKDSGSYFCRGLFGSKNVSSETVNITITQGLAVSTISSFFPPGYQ

FcgRIIIa V [3] = target: T3, FcgRIIIa V (human, UniProt P08637)
T3 sequence (P08637 17-208 F176V): as the sequence (P08637 17-208) above, with F160V counted along it

FcgRIIa H [4] = target: T4, FcgRIIa H (human, UniProt P12318)
T4 chain: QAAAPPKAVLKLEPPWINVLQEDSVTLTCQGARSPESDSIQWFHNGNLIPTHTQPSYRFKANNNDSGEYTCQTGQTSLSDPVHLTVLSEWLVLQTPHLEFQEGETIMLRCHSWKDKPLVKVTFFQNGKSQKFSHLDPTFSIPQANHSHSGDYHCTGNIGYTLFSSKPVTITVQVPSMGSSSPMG

FcgRIIb [5] = target: T5, FcgRIIb (human, UniProt P31994)
T5 chain: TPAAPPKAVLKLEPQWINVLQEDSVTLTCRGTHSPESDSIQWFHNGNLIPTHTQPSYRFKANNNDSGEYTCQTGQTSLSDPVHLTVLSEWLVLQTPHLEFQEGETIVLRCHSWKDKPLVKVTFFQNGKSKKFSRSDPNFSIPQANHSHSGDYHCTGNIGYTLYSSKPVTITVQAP

FcgRIIa R [6] = target: T6, FcgRIIa R (human, UniProt P12318)
T6 chain: T4 chain with H134R

FcgRIIIa F [7] = target: T2, FcgRIIIa F; remark: listed apart in the source
FcgRIIa R [8] = target: T6, FcgRIIa R
FcgRIIIa V [9] = target: T3, FcgRIIIa V; remark: listed apart in the source
FcgRIa [10] = target: T1, FcgRIa
FcgRIIb [11] = target: T5, FcgRIIb
FcgRIIa H [12] = target: T4, FcgRIIa H

B1: H240-Kn210/H240-Hl076/L73-k0 (antibody)
chain 1: QDQLVQSGAEVKKPGASVKVSCKASGFNIKDTYIQWVRQAPGQGLEWMGRIDPLRKQTKYREKFEGRVTITADTSTNTAYMELSSLRSEDTAVYYCVRSGREFDYWGQGTLVTVSSASTKGPSVFPLAPSSKSTSGGTAALGCLVKDYFPEPVTVSWNSGALTSGVHTFPAVLQSSGLYSLSSVVTVPSSSLGTQTYICNVNHKPSNTKVDKKVEPKSCDKTHTCPPCPAPEIQWGPMVFLFPPKPKDTLMISRTPEVTCVVVDVSDEEPEVKFNWYVDGVEVHNAKTKPREEQYNATYRVVSVLTVLHQDWLNGKEYKCKVSNKALPAPIEKTISKAKGQPREPQVCTLPPSRDELTKNQVSLWCLVKGFYPSDIAVEWESNGQPENNYKTTPPVLDSDGSFFLYSKLTVDKSRWQQGNVFSCSVMHEALHNHYTQKSLSLSP
chain 2: QDQLVQSGAEVKKPGASVKVSCKASGFNIKDTYIQWVRQAPGQGLEWMGRIDPLRKQTKYREKFEGRVTITADTSTNTAYMELSSLRSEDTAVYYCVRSGREFDYWGQGTLVTVSSASTKGPSVFPLAPSSKSTSGGTAALGCLVKDYFPEPVTVSWNSGALTSGVHTFPAVLQSSGLYSLSSVVTVPSSSLGTQTYICNVNHKPSNTKVDKKVEPKSCDKTHTCPPCPAPELLGGPSVFLFPPKPKDTLMISRTPEVTCVVVDVSHEEPEVKFNWYVDGVEVHNAKTKPREEQYNSTYRVVSVLTVLHQDWLNGKEYKCKVSNDALPMPIEETISKAKGQPREPQVYTLPPSRCELTKNQVSLSCAVKGFYPSDIAVEWESNGQPENNYKTTPPVLDSDGSFFLVSKLTVDKSRWQQGNVFSCSVMHEALHNHYTQKSLSLSP
chain 3: DIQMTQSPSSLSASVGDRVTITCRASQDIHKYIAWYQQKPGQAPRLLIQYTSTLQPGVPSRFSGSGSGTDYTFTISSLQPEDIATYYCLQYEQLRTFGGGTKVEIKRTVAAPSVFIFPPSDEQLKSGTASVVCLLNNFYPREAKVQWKVDNALQSGNSQESVTEQDSKDSTYSLSSTLTLSKADYEKHKVYACEVTHQGLSSPVTKSFNRGEC
Kd (FcgRIa [1]): 0.079 nM
Kd (FcgRIIIa F [2]): 1.8 nM
Kd (FcgRIIIa V [3]): 0.49 nM
Kd (FcgRIIa H [4]): 150 nM
Kd (FcgRIIb [5]): 4200 nM
Kd (FcgRIIa R [6]): 590 nM

B2: H240-Kn203/H240-Hl068/L73-k0 (antibody)
chain 1: B1 chain 1 with I233F, Q234Y, E269D, A326D
chain 2: B1 chain 2 with M329K
chain 3: B1 chain 3
Kd (FcgRIa [1]): 0.43 nM
Kd (FcgRIIIa F [2]): 3.4 nM
Kd (FcgRIIIa V [3]): 0.76 nM
Kd (FcgRIIa H [4]): 49 nM
Kd (FcgRIIb [5]): 270 nM
Kd (FcgRIIa R [6]): 46 nM

B9: H240-Kn223/H240-Hl068/L73-k0 (antibody)
chain 1: B1 chain 1 with I233G, Q234Y, E269D, A326D
chain 2: B1 chain 2 with M329K
chain 3: B1 chain 3
Kd (FcgRIa [1]): 0.13 nM
Kd (FcgRIIIa F [2]): 4.2 nM
Kd (FcgRIIIa V [3]): 0.57 nM
Kd (FcgRIIa H [4]): 94 nM
Kd (FcgRIIb [5]): 280 nM
Kd (FcgRIIa R [6]): 62 nM

B10: H240-Kn219/H240-Hl068/L73-k0 (antibody)
chain 1: B1 chain 1 with Q234Y, E269D, A326D
chain 2: B1 chain 2 with M329K
chain 3: B1 chain 3
Kd (FcgRIa [1]): 0.15 nM
Kd (FcgRIIIa F [2]): 2.7 nM
Kd (FcgRIIIa V [3]): 0.49 nM
Kd (FcgRIIa H [4]): 20 nM
Kd (FcgRIIb [5]): 90 nM
Kd (FcgRIIa R [6]): 14 nM

B11: H240-Kn217/H240-Hl068/L73-k0 (antibody)
chain 1: B1 chain 1 with I233D, Q234Y, E269D, A326D
chain 2: B1 chain 2 with M329K
chain 3: B1 chain 3
Kd (FcgRIa [1]): 0.17 nM
Kd (FcgRIIIa F [2]): 2.4 nM
Kd (FcgRIIIa V [3]): 0.38 nM
Kd (FcgRIIa H [4]): 76 nM
Kd (FcgRIIb [5]): 120 nM
Kd (FcgRIIa R [6]): 28 nM

B12: H240-Kn200/H240-Hl076/L73-k0 (antibody)
chain 1: B1 chain 1 with I233S
chain 2: B1 chain 2
chain 3: B1 chain 3
Kd (FcgRIa [1]): 0.088 nM
Kd (FcgRIIIa F [2]): 2.4 nM
Kd (FcgRIIIa V [3]): 0.59 nM
Kd (FcgRIIa H [4]): 230 nM
Kd (FcgRIIb [5]): 6200 nM
Kd (FcgRIIa R [6]): 790 nM

B14: H240-Kn212/H240-Hl076/L73-k0 (antibody)
chain 1: B1 chain 1 with I233T
chain 2: B1 chain 2
chain 3: B1 chain 3
Kd (FcgRIa [1]): 0.094 nM
Kd (FcgRIIIa F [2]): 2.1 nM
Kd (FcgRIIIa V [3]): 0.58 nM
Kd (FcgRIIa H [4]): 230 nM
Kd (FcgRIIb [5]): 5200 nM
Kd (FcgRIIa R [6]): 640 nM

B15: H240-Kn202/H240-Hl076/L73-k0 (antibody)
chain 1: B1 chain 1 with I233E
chain 2: B1 chain 2
chain 3: B1 chain 3
Kd (FcgRIa [1]): 0.071 nM
Kd (FcgRIIIa F [2]): 1.6 nM
Kd (FcgRIIIa V [3]): 0.38 nM
Kd (FcgRIIa H [4]): 360 nM
Kd (FcgRIIb [5]): 4100 nM
Kd (FcgRIIa R [6]): 640 nM

B16: H240-FA020/H240-FB084/L73-k0 (antibody)
chain 1: B1 chain 1 with Q195K, I198T, I233Y, Q234Y, M238S, C348Y, D355K, L357K, W365T, H434R
chain 2: QDQLVQSGAEVKKPGASVKVSCKASGFNIKDTYIQWVRQAPGQGLEWMGRIDPLRKQTKYREKFEGRVTITADTSTNTAYMELSSLRSEDTAVYYCVRSGREFDYWGQGTLVTVSSASTKGPSVFPLAPSSKSTSESTAALGCLVEDYFPEPVTVSWNSGALTSGVHTFPAVLQSSGLYSLSSVVTVPSSNFGTQTYTCNVDHKPSNTKVDKTVEPKSCDKTHTCPPCPAPELLGGPSVFLFPPKPKDTLMISRTPEVTCVVVDVSHEEPEVQFNWYVDGVEVHNAETKPREEQYNSTYRVVSVLTVLHQDWLNGKEYKCKVSNDALPMPIEETISKAKGQPREPQVYTLPPSREEMTKNQVSLTCLVKGFYPSDIAVEWESEGQPENNYKTTPPVLDSDGSFFLYSKLTVDKSRWQQGNVFSCSVMHEALHNHYTQESLSLSP
chain 3: B1 chain 3
Kd (FcgRIIIa F [7]): 3.5 nM
Kd (FcgRIIa R [8]): 220 nM
Kd (FcgRIIIa V [9]): 1 nM
Kd (FcgRIa [10]): 0.068 nM
Kd (FcgRIIb [11]): 1400 nM
Kd (FcgRIIa H [12]): 57 nM

Now from value to binder:

Kd (FcgRIa [1]): 0.16 nM
Kd (FcgRIIIa F [2]): 2.2 nM
Kd (FcgRIIIa V [3]): 0.34 nM
Kd (FcgRIIa H [4]): 70 nM
Kd (FcgRIIb [5]): 150 nM
Kd (FcgRIIa R [6]): 27 nM
B3: H240-Kn184/H240-Hl068/L73-k0 (antibody)
chain 1: B1 chain 1 with I233E, Q234Y, E269D, A326D
chain 2: B1 chain 2 with M329K
chain 3: B1 chain 3

Kd (FcgRIa [1]): 0.083 nM
Kd (FcgRIIIa F [2]): 2.4 nM
Kd (FcgRIIIa V [3]): 0.62 nM
Kd (FcgRIIa H [4]): 250 nM
Kd (FcgRIIb [5]): 7500 nM
Kd (FcgRIIa R [6]): 1200 nM
B4: H240-Kn209/H240-Hl076/L73-k0 (antibody)
chain 1: B1 chain 1 with I233Q
chain 2: B1 chain 2
chain 3: B1 chain 3

Kd (FcgRIa [1]): 0.058 nM
Kd (FcgRIIIa F [2]): 1.8 nM
Kd (FcgRIIIa V [3]): 0.36 nM
Kd (FcgRIIa H [4]): 140 nM
Kd (FcgRIIb [5]): 5400 nM
Kd (FcgRIIa R [6]): 720 nM
B5: H240-Kn201/H240-Hl076/L73-k0 (antibody)
chain 1: B1 chain 1 with I233F
chain 2: B1 chain 2
chain 3: B1 chain 3

Kd (FcgRIa [1]): 0.31 nM
Kd (FcgRIIIa F [2]): 2.3 nM
Kd (FcgRIIIa V [3]): 0.41 nM
Kd (FcgRIIa H [4]): 27 nM
Kd (FcgRIIb [5]): 130 nM
Kd (FcgRIIa R [6]): 20 nM
B6: H240-Kn199/H240-Hl068/L73-k0 (antibody)
chain 1: B1 chain 1 with I233L, Q234Y, E269D, A326D
chain 2: B1 chain 2 with M329K
chain 3: B1 chain 3

Kd (FcgRIa [1]): 0.17 nM
Kd (FcgRIIIa F [2]): 3.4 nM
Kd (FcgRIIIa V [3]): 0.46 nM
Kd (FcgRIIa H [4]): 32 nM
Kd (FcgRIIb [5]): 160 nM
Kd (FcgRIIa R [6]): 23 nM
B7: H240-Kn216/H240-Hl068/L73-k0 (antibody)
chain 1: B1 chain 1 with I233V, Q234Y, E269D, A326D
chain 2: B1 chain 2 with M329K
chain 3: B1 chain 3

Kd (FcgRIIIa F [7]): 3.9 nM
Kd (FcgRIIa R [8]): 250 nM
Kd (FcgRIIIa V [9]): 1.1 nM
Kd (FcgRIa [10]): 0.12 nM
Kd (FcgRIIb [11]): 1400 nM
Kd (FcgRIIa H [12]): 64 nM
B8: H240-FA009/H240-FB020/L73-k0 (antibody)
chain 1: B1 chain 1 with Q195K, I233Y, Q234Y, M238S, C348Y, D355K, L357M, W365T, H434R
chain 2: B1 chain 2 with K146E, K273Q, C355E, L357M, S365T, A367L, V406Y, K438E
chain 3: B1 chain 3

Kd (FcgRIa [1]): 0.15 nM
Kd (FcgRIIIa F [2]): 3.5 nM
Kd (FcgRIIIa V [3]): 0.5 nM
Kd (FcgRIIa H [4]): 34 nM
Kd (FcgRIIb [5]): 160 nM
Kd (FcgRIIa R [6]): 25 nM
B13: H240-Kn220/H240-Hl068/L73-k0 (antibody)
chain 1: B1 chain 1 with I233M, Q234Y, E269D, A326D
chain 2: B1 chain 2 with M329K
chain 3: B1 chain 3

Kd (FcgRIa [1]): 0.061 nM
Kd (FcgRIIIa F [2]): 3.4 nM
Kd (FcgRIIIa V [3]): 0.8 nM
Kd (FcgRIIa H [4]): 330 nM
Kd (FcgRIIb [5]): 7100 nM
Kd (FcgRIIa R [6]): 1100 nM
B17: H240-Kn214/H240-Hl076/L73-k0 (antibody)
chain 1: B1 chain 1 with I233G
chain 2: B1 chain 2
chain 3: B1 chain 3
